This experiment deals with His-FLAG-Arp5 (not stated (human or rat cDNA cloned)) (UniProt Q9H9F9). Kind of experiment: cross-linking.
Chain of UniProt Q9H9F9 (Q9H9F9 whole entry): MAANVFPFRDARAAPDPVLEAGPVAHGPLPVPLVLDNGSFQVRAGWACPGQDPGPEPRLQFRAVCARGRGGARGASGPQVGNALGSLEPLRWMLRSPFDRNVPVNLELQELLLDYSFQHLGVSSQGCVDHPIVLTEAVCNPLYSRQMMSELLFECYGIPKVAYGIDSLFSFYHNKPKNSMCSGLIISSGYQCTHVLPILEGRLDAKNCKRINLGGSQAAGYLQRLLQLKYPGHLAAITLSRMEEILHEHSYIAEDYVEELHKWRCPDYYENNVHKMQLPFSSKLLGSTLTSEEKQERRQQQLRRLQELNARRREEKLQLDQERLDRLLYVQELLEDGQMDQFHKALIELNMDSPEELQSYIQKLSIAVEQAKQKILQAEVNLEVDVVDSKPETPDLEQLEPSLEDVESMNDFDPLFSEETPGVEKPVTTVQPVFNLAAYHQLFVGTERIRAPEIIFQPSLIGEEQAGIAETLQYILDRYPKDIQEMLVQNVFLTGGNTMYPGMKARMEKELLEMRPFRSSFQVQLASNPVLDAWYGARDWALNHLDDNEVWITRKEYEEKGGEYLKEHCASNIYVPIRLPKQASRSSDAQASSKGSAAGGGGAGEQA

As usually defined, the stoichiometry N is the number of molecules, sites or subunits per partner or assembly. “GFP-fused 32-amino acid Myocd RPEL1 motif peptide (RPEL1-GFP)” showed a stoichiometry N of 1.
